Results from publication PMC4873313.
pKd: −log10 of the molar value. Read-outs that look alike come from different tables or passages of the source.

How the values were obtained:
[1] = target: aryl hydrocarbon receptor nuclear translocator PAS-B E362R, conjugated with Alexa-Fluor 488; assay: MST
[2] = target: aryl hydrocarbon receptor nuclear translocator PAS-B E362R, conjugated with Alexa-Fluor 488; assay: MST; remark: listed apart in the source
[3] = target: aryl hydrocarbon receptor nuclear translocator PAS-B E362R; assay: ITC
[4] = target: aryl hydrocarbon receptor nuclear translocator PAS-B E362R, conjugated with Alexa-Fluor 488; assay: MST; remark: listed apart in the source

A pKd [1] of 6.77, a pKd [2] of 6.60 and a pKd [3] of 6.25 were found for HIF-2α PAS-B R247E (domain or fragment) in this work. It also gave a dH [3] of 18.4 kJ/mol and a pKd [4] of 6.09.
